Results from paper PMC2731736, “cGMP-dependent protein kinase Iα associates with the antidepressant-sensitive serotonin transporter and dictates rapid modulation of serotonin uptake” (Molecular Brain, 2009).

What was measured:
[1] = target: T1, cGMP-dependent protein kinase II (PKGII), recombinant (UniProt Q13237 1-762); assay: kinase inhibition assay (Ki from enzyme kinetics); purified recombinant kinases with multiple concentrations of DT-2; saturating peptide substrate …; PKG isoforms activated with 1 μM cGMP; PKC activated with 50 μg/μL phospholipids and 100 ng/mL 12-O-tetradecanoylphorbol-13-acetate; conditions: both partners purified
T1 construct: cGMP-dependent protein kinase II; also called cGK2; source: insect cell cultures, Bacmid baculovirus expression system, purified to apparent homogeneity
T1 sequence (looked up): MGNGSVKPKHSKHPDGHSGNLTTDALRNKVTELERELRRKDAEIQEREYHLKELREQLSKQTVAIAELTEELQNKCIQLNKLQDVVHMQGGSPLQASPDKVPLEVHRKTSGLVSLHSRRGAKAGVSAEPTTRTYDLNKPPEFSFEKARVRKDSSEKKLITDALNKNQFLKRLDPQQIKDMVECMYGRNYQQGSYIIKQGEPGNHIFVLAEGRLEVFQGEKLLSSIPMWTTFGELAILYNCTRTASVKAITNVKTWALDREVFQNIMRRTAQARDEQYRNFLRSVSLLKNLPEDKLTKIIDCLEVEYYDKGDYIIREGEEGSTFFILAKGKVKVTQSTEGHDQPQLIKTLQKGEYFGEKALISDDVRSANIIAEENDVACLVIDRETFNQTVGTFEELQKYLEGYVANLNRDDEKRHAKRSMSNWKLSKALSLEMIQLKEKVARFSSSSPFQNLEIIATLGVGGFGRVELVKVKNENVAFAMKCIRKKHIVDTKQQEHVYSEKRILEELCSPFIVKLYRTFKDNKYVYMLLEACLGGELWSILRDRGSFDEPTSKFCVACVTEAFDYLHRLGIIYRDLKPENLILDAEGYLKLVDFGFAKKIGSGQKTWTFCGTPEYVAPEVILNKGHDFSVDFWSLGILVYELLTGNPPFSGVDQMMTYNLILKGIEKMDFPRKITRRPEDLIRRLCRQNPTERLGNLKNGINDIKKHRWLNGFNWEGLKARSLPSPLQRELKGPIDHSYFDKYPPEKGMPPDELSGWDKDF

[2] = target: T2, Recombinant protein kinase Cα (PKCα, human) (human, UniProt P17252 1-672); assay: as above; conditions: both partners purified
T2 construct: protein kinase C alpha, human, recombinant; source: bought: Calbiochem

With YGRKKRRQRRRPPLRKKKKKH (also called peptide DT-2) [DT-2] the Ki [1] was 9.1 µM and the Ki [2] was 0.0266 µM.
